Laboratory results as given in patent EP0983376B1, “SCREENING ASSAYS FOR AGENTS THAT ALTER INHIBITOR OF APOPTOSIS (IAP) PROTEIN REGULATION OF CASPASE ACTIVITY” (The Burnham Institute, priority 1997, dated 1998).

B2: GST-c-IAP-1(BIR) (other, human, UniProt Q13490 1-350, looked up)
chain: MHKTASQRLFPGPSYQNIKSIMEDSTILSDWTNSNKQKMKYDFSCELYRMSTYSTFPAGVPVSERSLARAGFYYTGVNDKVKCFCCGLMLDNWKLGDSPIQKHKQLYPSCSFIQNLVSASLGSTSKNTSPMRNSFAHSLSPTLEHSSLFSGSYSSLSPNPLNSRAVEDISSSRTNPYSYAMSTEEARFLTYHMWPLTFLSPSELARAGFYYIGPGDRVACFACGGKLSNWEPKDDAMSEHRRHFPNCPFLENSLETLRFSISNLSMQTHAARMRTFMYWPSSVPVQPEQLASAGFYYVGRNDDVKCFCCDGGLRCWESGDDPWVEHAKWFPRCEFLIRMKGQEFVDEIQG
notes: range 1-350; not shown: glutathione S-transferase encoded by vector pGEX4T; vector linker not described
B3: purified recombinant active caspase-3 (His6-tagged) (enzyme)
chain 1: SGISLDNSYKMDYPEMGLCIIINNKNFHKSTGMTSRSGTDVDAANLRETFRNLKYEVRNKNDLTREEIVELMRDVSKEDHSKRSSFVCVLLSHGEEGIIFGTNGPVDLKKITNFFRGDRCRSLTGKPKLFIIQACRGTELDCGIETD
chain 2: SGVDDDMACHKIPVEADFLYAYSTAPGYYSWRNSKDGSWFIQSLCAMLKQYADKLEFMHILTRVNRKVATEFESFSFDATFHAKKQIPCIVSMLTKELYFYH
notes: domain: large subunit;domain: small subunit; also called His6-caspase-3; CPP32

Legend:
pro-caspase-9 processing = assay: Cytochrome c-induced processing of pro-caspase-9 in 293 cell cytosolic extracts; assay type: biochemical; conditions: 10 µM cytochrome c, 1 mM dATP, 30 °C, 30 minutes
Experimental: For the results shown in Figure 4, in vitro translated ^35S-labeled pro-caspase-9 was added to cytosolic extracts from 293 cells, and subsequently incubated for 30 min at 30 °C with (lanes 2-6) or without (lane 1) 10 µM cytochrome c and 1 mM dATP in the presence or absence of 0.2 µM GST-IAP proteins or a GST control protein. Cytochrome c induced processing of pro-caspase-9 was subsequently monitored by SDS-PAGE and autoradiography.
Pro-caspase-9 inhibition by Ac-DEVD-fmk, zVAD-fmk and XIAP was compared as follows. In vitro translated ^35S-labeled pro-caspase-9 was added to cytosolic extracts from 293 cells containing 10 µM cytochrome c and 1 mM dATP. Samples were incubated at 30 °C for 30 minutes in the presence of the indicated concentrations of inhibitors. Proteins were separated on SDS-PAGE gels, dried directly, and exposed to film.

293T cells = assay: Bax-induced apoptosis and caspase-3 processing in transfected 293T cells; assay type: cell-based, Human; conditions: PI staining, 24 hr; Bax expressing cells treated with 50 µM inhibitor (Bax alone about 25%)
Experimental: N-benzyloxycarbonyl-Val-Ala-Asp fluoromethylketone (zVAD-fmk; 50 µM) (Bachem California; Torrance CA) was added immediately after transfection of the Bax plasmid. Transfection efficiency was uniformly 80-90%, as determined by X-Gal staining following cotransfection with pCMV-βGal.
Cells were maintained in culture for 24 hr, then floating and attached cells were harvested and an aliquot was removed and the percent of dead cells was determined by either trypan blue or propidium iodide (PI) dye exclusion assay. A second aliquot was used to assess the percentage of apoptotic cells with subdiploid DNA content by FACS analysis of PI stained, ethanol fixed cells. The remaining cell pellets were lysed in 10 mM HEPES (pH 7.5), 142 mM KCl, 1 mM EGTA, 1 mM DTT, 0.2% NP-40, 0.1 mM PMSF and used for immunoblot analysis or for protease assays.

[1] = molecular target: purified recombinant active caspase-7 (His6-tagged) (UniProt P55210); assay: progress curves of DEVD-AFC hydrolysis by caspase-7 (150 pM) with 0.025 to 1.5 µM IAP
[2] = molecular target: B3; assay: progress curves of DEVD-AFC hydrolysis by caspase-3 (7 pM) with 0.025 to 1.5 µM IAP
GST-c-IAP-1 [3] = molecular target: T1, GST-c-IAP-1 (human, UniProt Q13490 1-618); assay: opening sentence of Example IV
T1 construct: domain: full length; also called HIAP-2; hMIHB; not shown: glutathione S-transferase encoded by vector pGEX4T; vector linker not described

GST-c-IAP-2 [4] = molecular target: T2, GST-c-IAP-2 (human, UniProt Q13489 1-604); assay: opening sentence of Example IV
T2 construct: domain: full length; also called HIAP-1; hMIHC; not shown: glutathione S-transferase encoded by vector pGEX4T; vector linker not described

GST-c-IAP-1(BIR) = molecular target: B2; assay: glutathione-SEPHAROSE affinity chromatography
GST-c-IAP-1 [5] = molecular target: T1, GST-c-IAP-1; assay: GST-IAP added to 293 extracts previously treated with cytochrome c, recovered on glutathione-Sepharose, anti-caspase-3 immunoblot
GST-c-IAP-2 [6] = molecular target: T2, GST-c-IAP-2; assay: as above
GST-c-IAP-1 [7] = molecular target: T1, GST-c-IAP-1; assay: opening sentence of Example VI
GST-c-IAP-2 [8] = molecular target: T2, GST-c-IAP-2; assay: opening sentence of Example VI
myc-tagged c-IAP-2 = molecular target: T3, myc-tagged c-IAP-2 (human, UniProt Q13489 1-604); assay: legend of Figure 8: anti-myc immunoprecipitation, anti-FLAG immunoblot
T3 construct: also called pcDNA3myc-c-IAP-2; pcDNA3-myc-c-IAP-2; not shown: Myc tag of pcDNA3myc

myc-tagged c-IAP-1 = molecular target: T4, myc-tagged c-IAP-1 (human, UniProt Q13490 1-618); assay: as above
T4 construct: also called pcDNA3myc-c-IAP-1; pcDNA3-myc-IAP-1; not shown: Myc tag of pcDNA3myc

[9] = molecular target: B3; assay: GST pull-down on glutathione-SEPHAROSE, immunoblot

Molecule: N-benzyloxycarbonyl-Val-Ala-Asp fluoromethylketone [zVAD-fmk]
- concentration to completely abolish processing of pro-caspase-9 (pro-caspase-9 processing): at least 5 µM
- apoptotic cells (293T cells): about 5%

Molecule: GST-c-IAP-2 (from UniProt Q13489 1-604)
- Ki [1]: 26 nM

B1: GST-c-IAP-2(BIR) (other, human, UniProt Q13489 1-335, looked up)
chain: MNIVENSIFLSNLMKSANTFELKYDLSCELYRMSTYSTFPAGVPVSERSLARAGFYYTGVNDKVKCFCCGLMLDNWKRGDSPTEKHKKLYPSCRFVQSLNSVNNLEATSQPTFPSSVTNSTHSLLPGTENSGYFRGSYSNSPSNPVNSRANQDFSALMRSSYHCAMNNENARLLTFQTWPLTFLSPTDLAKAGFYYIGPGDRVACFACGGKLSNWEPKDNAMSEHLRHFPKCPFIENQLQDTSRYTVSNLSMQTHAARFKTFFNWPSSVLVNPEQLASAGFYYVGNSDDVKCFCCDGGLRCWESGDDPWVQHAKWFPRCEYLIRIKGQEFIRQVQ
notes: range 1-335; not shown: glutathione S-transferase encoded by vector pGEX4T; vector linker not described
- Ki [1]: 238 nM
- Ki [2]: 260 nM

Molecule: B2
- Ki [1]: 160 nM
- Ki [2]: 330 nM

Molecule: B3
- binding result (GST-c-IAP-1 [3]): binds
- binding result (GST-c-IAP-2 [4]): binds
- binding result (GST-c-IAP-1(BIR)): binds

B4: processed (active) caspase-3 of 293 cell cytosolic extracts treated with cytochrome c and dATP (enzyme, human)
chain 1: SGISLDNSYKMDYPEMGLCIIINNKNFHKSTGMTSRSGTDVDAANLRETFRNLKYEVRNKNDLTREEIVELMRDVSKEDHSKRSSFVCVLLSHGEEGIIFGTNGPVDLKKITNFFRGDRCRSLTGKPKLFIIQACRGTELDCGIETD
chain 2: SGVDDDMACHKIPVEADFLYAYSTAPGYYSWRNSKDGSWFIQSLCAMLKQYADKLEFMHILTRVNRKVATEFESFSFDATFHAKKQIPCIVSMLTKELYFYH
notes: domain: large subunit;domain: small subunit; Endogenous protein of the extract, detected with anti-caspase-3 antiserum that sees only the zymogen and the large subunit; also called processed caspase-3; band 3
- binding result (GST-c-IAP-1 [5]): binds
- binding result (GST-c-IAP-2 [6]): binds

B5: in vitro translated 35S-labeled pro-caspase-9 (enzyme, UniProt P55211 1-416, looked up)
chain: MDEADRRLLRRCRLRLVEELQVDQLWDALLSRELFRPHMIEDIQRAGSGSRRDQARQLIIDLETRGSQALPLFISCLEDTGQDMLASFLRTNRQAAKLSKPTLENLTPVVLRPEIRKPEVLRPETPRPVDIGSGGFGDVGALESLRGNADLAYILSMEPCGHCLIINNVNFCRESGLRTRTGSNIDCEKLRRRFSSLHFMVEVKGDLTAKKMVLALLELAQQDHGALDCCVVVILSHGCQASHLQFPGAVYGTDGCPVSVEKIVNIFNGTSCPSLGGKPKLFFIQACGGEQKDHGFEVASTSPEDESPGSNPEPDATPFQEGLRTFDQLDAISSLPTPSDIFVSYSTFPGFVSWRDPKSGSWYVETLDDIFEQWAHSEDLQSLLLRVANAVSVKGIYKQMPGCFNFLRKKLFFKTS
modifications: 35S-L-methionine labeled
notes: domain: zymogen; also called zymogen of caspase-9; Mch6
- binding result (GST-c-IAP-1 [7]): binds
- binding result (GST-c-IAP-2 [8]): binds

B6: FLAG tagged pro-caspase-9 (enzyme, UniProt P55211 1-416, looked up, not shown: small tags and cut ends)
chain: MDEADRRLLRRCRLRLVEELQVDQLWDALLSRELFRPHMIEDIQRAGSGSRRDQARQLIIDLETRGSQALPLFISCLEDTGQDMLASFLRTNRQAAKLSKPTLENLTPVVLRPEIRKPEVLRPETPRPVDIGSGGFGDVGALESLRGNADLAYILSMEPCGHCLIINNVNFCRESGLRTRTGSNIDCEKLRRRFSSLHFMVEVKGDLTAKKMVLALLELAQQDHGALDCCVVVILSHGCQASHLQFPGAVYGTDGCPVSVEKIVNIFNGTSCPSLGGKPKLFFIQACGGEQKDHGFEVASTSPEDESPGSNPEPDATPFQEGLRTFDQLDAISSLPTPSDIFVSYSTFPGFVSWRDPKSGSWYVETLDDIFEQWAHSEDLQSLLLRVANAVSVKGIYKQMPGCFNFLRKKLFFKTS
notes: domain: zymogen; also called Flag-pro-caspase-9; FLAG-caspase-9
- binding result (myc-tagged c-IAP-2): binds
- binding result (myc-tagged c-IAP-1): binds

B7: GST-CD40 cytosolic domain (other, UniProt P25942 216-277, looked up)
chain: KKVAKKPTNKAPHPKQEPQEINFPDDLPGSNTAAPVQETLHGCQPVTQEDGKESRISVQERQ
notes: domain: cytosolic domain; Control protein; not shown: glutathione S-transferase
- binding result [9]: no binding
